For one molecule, residual activity relative to Cytiva's product (Capto L) and residual activity (antibody recovered after 15 alkali treatments, relative to the initial binding) results are on record in patent publication US20230356187A1.

In assay [1] the target is purified antibody (KBIO, Korea). Put plainly: 1 ml resin column; purified antibody bound, eluted and measured after 15 cycles of 0.3 M NaOH; reference Capto L.
The target is the same in assay [2]. Nature of the assay: 1 ml resin column; purified antibody bound, eluted and measured after 15 cycles of 0.3 M NaOH (15 min each).

B1: variant protein 4mBF (mBF tetramer) (designed binder)
chain: MPKEEVTIKANLIFADGKTQTAEFKGTFGEATAEAYRYADLLAPENGKYTVDVADKGYTLNIKFAGKEKTPEEMPKEEVTIKANLIFADGKTQTAEFKGTFGEATAEAYRYADLLAPENGKYTVDVADKGYTLNIKFAGKEKTPEEMPKEEVTIKANLIFADGKTQTAEFKGTFGEATAEAYRYADLLAPENGKYTVDVADKGYTLNIKFAGKEKTPEEMPKEEVTIKANLIFADGKTQTAEFKGTFGEATAEAYRYADLLAPENGKYTVDVADKGYTLNIKFAGKEKTPEE
Take B1: the residual activity relative to Cytiva's product (Capto L) in assay [1] came out at 1.4 times. Besides, the residual activity (antibody recovered after 15 alkali treatments, relative to the initial binding) in assay [2] is 43.5%.
